Source: PMC6234862, “The Structure of the Human Respiratory Syncytial Virus M2-1 Protein Bound to the Interaction Domain of the Phosphoprotein P Defines the Orientation of the Complex” (mBio, 2018)
Where no end group is shown, it is not given here. fluorescein = fluorescein label at the peptide N-terminus

B2: Human respiratory syncytial virus (HRSV) M2-1 protein, full-length native tetramer (natural protein)
chain: MSRRNPCKFEIRGHCLNGKRCHFSHNYFEWPPHALLVRQNFMLNRILKSMDKSIDTLSEISGAAELDRTEEYALGVVGVLESYIGSINNITKQSACVAMSKLLTELNSDDIKKLRDNEELNSPKIRVYNTVISYIESNRKNNKQTIHLLKRLPADVLKKTIKNTLDIHKSITINNPKESTVSDTNDHAKNNDTT
notes: HRSV M2-1 protein, strain A2, M2-1 ORF; 194 amino acids; Also used here as the wild-type M2-1 of the minigenome rows, where it was expressed from a plasmid in BSRT7 cells; also called native M2-1; tetrameric M2-1; source: E. coli BL21(DE3) Gold, purified (glutathione Sepharose, on-column PreScission cleavage, SP Sepharose; Superdex 75 for crystallization); not shown: GST, N-terminal, cleaved
B6: P90-110 peptide, unlabeled (residues 90 to 110 of HRSV P) (peptide, UniProt P03421 90-110, looked up)
peptide: DPTPSDNPFSKLYKETIETFD
notes: HRSV phosphoprotein P, strain A2, residues 90-110; residues 97 to 109 seen in the density; also called P peptide; source: synthetic peptide (ProteoGenix)

Tests used:
[1] = biological target: GST-P1-241 (full-length HRSV phosphoprotein P fused to GST) (human respiratory syncytial virus, strain A2) (UniProt P03421)
[2] = biological target: B2; experiment: pull-down; GST-P constructs from clarified E. coli lysates held on glutathione Sepharose 4B and washed; 1 mg purified M2-1 added, room temperature, 5 min; 25 mM Tris/HCl pH 7.4, 150 mM NaCl, 1 mM DTT; SDS-PAGE, Coomassie staining; settings: both partners purified
[3] = biological target: T1, GST-P1-241 (full-length HRSV phosphoprotein P fused to GST) (human respiratory syncytial virus, …, UniProt P03421 1-241); experiment: as above; settings: both partners purified
T1 construct: pGEX-6P-2 construct; Also used here as the wild-type P of the minigenome rows, where P was expressed from a plasmid in BSRT7 cells (no GST told there); also called WT P; not shown: GST, N-terminal, kept

[4] = biological target: the molecule itself; experiment: crystal structure; M2-1 tetramer mixed with P90-110 in a 1:1 molar ratio, concentrated to 8 mg/ml; sitting drop vapor diffusion at 18°C; 0.2 M trimethylamine N-oxide dihydrate, 0.1 M Tris-HCl pH 8.5, 2% PEG MME 2000; 2.4 Å
[5] = biological target: B6; experiment: as above; settings: both partners purified
M2-1 = biological target: T2, M2-1 (Human respiratory syncytial virus …, UniProt P04545 1-194); experiment: fluorescence anisotropy competition; displaces 10 nM fluorescein-P90-110 peptide from 1 uM M2-1; 20 mM Tris-Cl pH 7.5, 150 mM NaCl, 0.01% Triton X-100, room temperature, 30 min; settings: protein: recombinant; tags: GST removed by PreScission protease; chain copies: 4; single strand
T2 sequence: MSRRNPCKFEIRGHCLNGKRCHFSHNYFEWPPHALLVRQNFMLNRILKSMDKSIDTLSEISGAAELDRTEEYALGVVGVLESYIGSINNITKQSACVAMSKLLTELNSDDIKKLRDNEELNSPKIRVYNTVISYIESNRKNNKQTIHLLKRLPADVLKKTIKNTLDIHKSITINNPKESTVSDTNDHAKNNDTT

[6] = biological target: B2; experiment: fluorescence polarisation; fluorescence anisotropy, direct binding; 10 nM fluorescein-labeled P90-110, M2-1 0.1 nM to 300 μM; 20 mM Tris-Cl pH 7.5, 150 mM NaCl, 0.01% Triton X-100; 30 min at room temperature; 384-well; triplicate; apparent; settings: both partners purified
[7] = biological target: B2; experiment: crystal structure; M2-1 tetramer mixed with P90-110 in a 1:1 molar ratio, concentrated to 8 mg/ml; sitting drop vapor diffusion at 18°C; 0.2 M trimethylamine N-oxide dihydrate, 0.1 M Tris-HCl pH 8.5, 2% PEG MME 2000; 2.4 Å; settings: both partners purified

Q: With “HRSV M2-1 L148A (from UniProt P04545 1-194) (natural protein)” as the molecule, how does the HRSV minigenome assay, eGFP fluorescence in BSRT7 cells relative to WT M2-1 [1] read?
A: The HRSV minigenome assay, eGFP fluorescence in BSRT7 cells relative to WT M2-1 was 30 % of WT M2-1.

Q: With “HRSV M2-1 R126E (from UniProt P04545 1-194) (natural protein)” as the molecule, how does the HRSV minigenome assay, eGFP fluorescence in BSRT7 cells relative to WT M2-1 [1] read?
A: Its HRSV minigenome assay, eGFP fluorescence in BSRT7 cells relative to WT M2-1 is 30 % of WT M2-1.

B1: GST-P90-160 (domain or fragment)
chain: DPTPSDNPFSKLYKETIETFDNNEEESSYSYEEINDQTNDNITARLDRIDEKLSEILGMLHTLVVASAGPT
notes: HRSV phosphoprotein P, strain A2, residues 90-160; pGEX-6P-2 construct; not shown: GST, N-terminal, kept
Q: Does B1 bind [2]?
A: Result: binds

Q: Does B2 bind [3]?
A: Result: binds

Q: And the “stoichiometry N” value [4]?
A: The value was 4.

Q: What about the “stoichiometry N” value [5] of the same molecule?
A: The value was 1.

B3: A13 (poly(A) RNA 13-mer) (ssRNA)
RNA: AAAAAAAAAAAAA
Q: How did the IC50 (M2-1) turn out when B3 was run?
A: The IC50 was 1.7 µM.

B4: GST-P90-110 (domain or fragment, UniProt P03421 90-110, looked up)
chain: DPTPSDNPFSKLYKETIETFD
notes: HRSV phosphoprotein P, strain A2, residues 90-110; pGEX-6P-2 construct; also called P90–110 (GST fusion); not shown: GST, N-terminal, kept
Q: Does B4 bind [2]?
A: Result: binds

B5: Fluorescein-labeled P90-110 peptide (peptide, UniProt P03421 90-110, looked up)
peptide: fluorescein-DPTPSDNPFSKLYKETIETFD
notes: HRSV phosphoprotein P, residues 90-110; Strain A2 is stated for the unlabeled peptide; source: synthetic peptide (ProteoGenix)
Q: For B5, which Kd [6] is on record?
A: Its Kd is 7.5 µM.

Q: Does B6 bind [7]?
A: Result: binds
